Experimental data from PMC9482650, “Quantitative fragmentomics allow affinity mapping of interactomes” (Nature Communications, 2022).

Legend:
Experiment in all cases: holdup assay
Parameters in all cases: key: below the threshold = too weak to quantify, mostly under pKd 3.1 to 4
APBA3_1, O96018 = molecular target: T1, APBA3_1, O96018
T1 sequence (O96018 389-490, limits assumed, looked up): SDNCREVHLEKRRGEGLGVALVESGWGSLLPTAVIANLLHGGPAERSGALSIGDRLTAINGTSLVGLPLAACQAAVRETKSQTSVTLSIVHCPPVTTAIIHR

CARD11, Q9BXL7 = molecular target: T2, CARD11, Q9BXL7
T2 sequence (Q9BXL7 662-765, limits assumed, looked up): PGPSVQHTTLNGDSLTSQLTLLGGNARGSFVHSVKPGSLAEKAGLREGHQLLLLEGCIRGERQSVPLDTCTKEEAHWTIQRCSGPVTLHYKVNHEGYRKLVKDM

DLG2_2, Q15700 = molecular target: DLG2_2, Q15700
DLG4_3, P78352 = molecular target: DLG4_3, P78352
DVL3, Q92997 = molecular target: T3, DVL3, Q92997
T3 sequence (Q92997 244-331, limits assumed, looked up): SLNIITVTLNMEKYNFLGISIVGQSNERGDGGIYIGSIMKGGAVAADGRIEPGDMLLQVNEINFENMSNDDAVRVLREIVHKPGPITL

FRMPD3, Q5JV73 = molecular target: FRMPD3, Q5JV73
GOPC, Q9HD26 = molecular target: GOPC, Q9HD26
GORASP2, Q9H8Y8 = molecular target: GORASP2, Q9H8Y8
GRIP1_5, Q9Y3R0 = molecular target: T4, GRIP1_5, Q9Y3R0
T4 sequence (Q9Y3R0 568-668, limits assumed, looked up): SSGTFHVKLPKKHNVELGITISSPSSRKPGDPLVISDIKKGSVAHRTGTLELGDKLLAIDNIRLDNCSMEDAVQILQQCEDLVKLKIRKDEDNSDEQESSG

GRIP2_4, Q9C0E4 = molecular target: GRIP2_4, Q9C0E4
GRIP2_6, Q9C0E4 = molecular target: GRIP2_6, Q9C0E4
HTRA1, Q92743 = molecular target: HTRA1, Q92743
HTRA2, O43464 = molecular target: HTRA2, O43464
HTRA3, P83110 = molecular target: T5, HTRA3, P83110
T5 sequence (P83110 354-453, limits assumed, looked up): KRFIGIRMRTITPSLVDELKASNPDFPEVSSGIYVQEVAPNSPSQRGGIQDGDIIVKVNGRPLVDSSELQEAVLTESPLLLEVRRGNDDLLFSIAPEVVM

Inadl_6, Q8NI35 = molecular target: Inadl_6, Q8NI35
LAP2, Q96RT1 = molecular target: LAP2, Q96RT1
LNX1_1, Q8TBB1 = molecular target: LNX1_1, Q8TBB1
LNX1_2, Q8TBB1 = molecular target: LNX1_2, Q8TBB1
LNX2_3, Q8N448 = molecular target: T6, LNX2_3, Q8N448
T6 sequence (Q8N448 463-564, limits assumed, looked up): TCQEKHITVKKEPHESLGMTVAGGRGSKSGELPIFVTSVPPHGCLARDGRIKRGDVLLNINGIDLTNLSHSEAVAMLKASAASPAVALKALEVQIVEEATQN

LRRC7, Q96NW7 = molecular target: T7, LRRC7, Q96NW7
T7 sequence (Q96NW7 1440-1537, limits assumed, looked up): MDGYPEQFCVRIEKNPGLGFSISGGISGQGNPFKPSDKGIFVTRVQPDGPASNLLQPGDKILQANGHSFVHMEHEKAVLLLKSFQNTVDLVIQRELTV

MAGI3_2, Q5TCQ9 = molecular target: MAGI3_2, Q5TCQ9
MPP7, Q5T2T1 = molecular target: T8, MPP7, Q5T2T1
T8 sequence (Q5T2T1 134-230, limits assumed, looked up): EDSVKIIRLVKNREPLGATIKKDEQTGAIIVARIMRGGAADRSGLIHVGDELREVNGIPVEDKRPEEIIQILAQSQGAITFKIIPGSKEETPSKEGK

NHERF4_1, Q86UT5-2 = molecular target: NHERF4_1, Q86UT5-2
PDZRN4_1, Q6ZMN7 = molecular target: PDZRN4_1, Q6ZMN7
SNTB1, Q13884 = molecular target: T9, SNTB1, Q13884
T9 sequence (Q13884 107-205, limits assumed, looked up): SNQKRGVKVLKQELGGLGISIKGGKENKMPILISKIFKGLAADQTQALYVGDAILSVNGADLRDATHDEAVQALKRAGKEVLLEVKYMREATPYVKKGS

TJP1_3, Q07157 = molecular target: TJP1_3, Q07157
TJP3_3, O95049 = molecular target: T10, TJP3_3, O95049
T10 sequence (O95049 375-456, limits assumed, looked up): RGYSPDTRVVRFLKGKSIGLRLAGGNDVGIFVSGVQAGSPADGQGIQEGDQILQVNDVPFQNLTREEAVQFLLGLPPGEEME

[1] = plain residues with an end cap or a label only (N-terminal biotin on a linker: ado-ado)
[2] = plain residues with an end cap or a label only (N-terminal biotin on a linker: ahx)

Sequence of LAP2, Q96RT1 (Q96RT1 other isoform, or with tags, fused parts or gaps): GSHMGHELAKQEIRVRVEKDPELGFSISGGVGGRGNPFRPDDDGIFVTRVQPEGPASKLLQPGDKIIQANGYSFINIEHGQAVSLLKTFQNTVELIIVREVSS
Sequence of MAGI3_2, Q5TCQ9 (Q5TCQ9 398-503): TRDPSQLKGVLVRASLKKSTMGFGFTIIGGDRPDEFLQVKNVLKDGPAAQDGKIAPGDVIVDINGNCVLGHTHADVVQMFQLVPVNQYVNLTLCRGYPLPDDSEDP
Sequence of HTRA1, Q92743 (Q92743 360-477): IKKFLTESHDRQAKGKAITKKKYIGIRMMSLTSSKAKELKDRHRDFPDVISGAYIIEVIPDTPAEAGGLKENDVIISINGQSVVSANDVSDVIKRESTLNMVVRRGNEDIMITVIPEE
Sequence of GRIP2_6, Q9C0E4 (Q9C0E4 648-740): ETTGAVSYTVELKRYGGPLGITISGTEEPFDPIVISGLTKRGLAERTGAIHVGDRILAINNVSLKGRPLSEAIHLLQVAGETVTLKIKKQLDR
Sequence of Inadl_6, Q8NI35 (Q8NI35 1058-1167): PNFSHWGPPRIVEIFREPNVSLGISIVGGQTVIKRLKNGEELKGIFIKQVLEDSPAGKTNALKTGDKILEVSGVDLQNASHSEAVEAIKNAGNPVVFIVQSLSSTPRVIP
Sequence of LNX1_2, Q8TBB1 (Q8TBB1 371-470): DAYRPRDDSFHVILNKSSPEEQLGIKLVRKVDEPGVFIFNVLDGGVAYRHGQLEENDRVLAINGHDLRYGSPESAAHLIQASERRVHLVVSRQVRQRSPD
Sequence of DLG2_2, Q15700 (Q15700 189-283): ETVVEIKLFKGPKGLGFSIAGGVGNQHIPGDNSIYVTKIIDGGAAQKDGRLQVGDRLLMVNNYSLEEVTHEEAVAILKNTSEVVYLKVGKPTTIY
Sequence of DLG4_3, P78352 (P78352 306-403): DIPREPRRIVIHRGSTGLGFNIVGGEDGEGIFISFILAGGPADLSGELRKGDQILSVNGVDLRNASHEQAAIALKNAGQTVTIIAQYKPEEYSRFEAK
Sequence of PDZRN4_1, Q6ZMN7 (Q6ZMN7 213-318): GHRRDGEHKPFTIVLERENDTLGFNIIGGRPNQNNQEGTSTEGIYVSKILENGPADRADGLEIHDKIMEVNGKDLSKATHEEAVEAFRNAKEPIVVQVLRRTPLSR
Sequence of NHERF4_1, Q86UT5-2 (Q86UT5 other isoform, or with tags, fused parts or gaps): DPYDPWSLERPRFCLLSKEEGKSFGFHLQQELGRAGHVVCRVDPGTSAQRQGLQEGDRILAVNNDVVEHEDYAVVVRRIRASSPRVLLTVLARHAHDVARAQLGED
Sequence of TJP1_3, Q07157 (Q07157 416-512): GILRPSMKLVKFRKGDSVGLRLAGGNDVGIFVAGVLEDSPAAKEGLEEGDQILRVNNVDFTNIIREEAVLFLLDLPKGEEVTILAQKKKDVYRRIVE
Sequence of GRIP2_4, Q9C0E4 (Q9C0E4 446-548): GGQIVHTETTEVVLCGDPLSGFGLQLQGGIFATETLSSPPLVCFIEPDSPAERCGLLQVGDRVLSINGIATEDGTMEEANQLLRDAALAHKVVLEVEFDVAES
Sequence of HTRA2, O43464 (O43464 355-458): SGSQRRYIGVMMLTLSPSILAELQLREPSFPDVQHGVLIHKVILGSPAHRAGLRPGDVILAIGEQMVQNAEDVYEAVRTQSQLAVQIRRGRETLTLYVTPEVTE
Sequence of LNX1_1, Q8TBB1 (Q8TBB1 261-371): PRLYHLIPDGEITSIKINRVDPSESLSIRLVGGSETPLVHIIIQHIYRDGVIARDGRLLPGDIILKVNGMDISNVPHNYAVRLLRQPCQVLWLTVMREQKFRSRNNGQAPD
Sequence of FRMPD3, Q5JV73 (Q5JV73 12-100): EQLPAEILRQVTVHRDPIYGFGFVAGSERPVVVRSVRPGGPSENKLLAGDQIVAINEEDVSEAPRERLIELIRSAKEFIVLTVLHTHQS

B1: TRIM50, Q86XT4 (peptide)
chain: PLSPEQPTKL
For B1, the pKd (APBA3_1, O96018; [1]) was “below the threshold”, the pKd (CARD11, Q9BXL7; [1]) was “below the threshold” and the pKd (DLG2_2, Q15700; [1]) was “below the threshold”. For the same binder, the pKd (DLG4_3, P78352; [1]) was “below the threshold”, the pKd (DVL3, Q92997; [1]) was “below the threshold” and the pKd (FRMPD3, Q5JV73; [1]) was “below the threshold”. For the same binder, the pKd (GOPC, Q9HD26; [1]) was “below the threshold”, the pKd (GORASP2, Q9H8Y8; [1]) was “below the threshold” and the pKd (GRIP1_5, Q9Y3R0; [1]) was “below the threshold”. For the same binder, the pKd (GRIP2_4, Q9C0E4; [1]) was “below the threshold”, the pKd (GRIP2_6, Q9C0E4; [1]) was “below the threshold” and the pKd (HTRA1, Q92743; [1]) was “below the threshold”. The pKd (HTRA2, O43464; [1]) was “below the threshold”, the pKd (HTRA3, P83110; [1]) was “below the threshold” and the pKd (Inadl_6, Q8NI35; [1]) was “below the threshold”. For the same binder, the pKd (LAP2, Q96RT1; [1]) was “below the threshold”, the pKd (LNX1_1, Q8TBB1; [1]) was “below the threshold” and the pKd (LNX1_2, Q8TBB1; [1]) was “below the threshold”. For the same binder, the pKd (LNX2_3, Q8N448; [1]) was “below the threshold”, the pKd (LRRC7, Q96NW7; [1]) was “below the threshold” and the pKd (MAGI3_2, Q5TCQ9; [1]) was “below the threshold”. The pKd (MPP7, Q5T2T1; [1]) was “below the threshold”, the pKd (NHERF4_1, Q86UT5-2; [1]) was 3.98 and the pKd (PDZRN4_1, Q6ZMN7; [1]) was “below the threshold”. The pKd (SNTB1, Q13884; [1]) was “below the threshold”, the pKd (TJP1_3, Q07157; [1]) was “below the threshold” and the pKd (TJP3_3, O95049; [1]) was “below the threshold”.

B2: NHERF2, Q15599 (peptide)
chain: NRKREIFSNF
For B2, the pKd (APBA3_1, O96018; [2]) was “below the threshold”, the pKd (CARD11, Q9BXL7; [2]) was “below the threshold” and the pKd (DLG2_2, Q15700; [2]) was “below the threshold”. The pKd (DLG4_3, P78352; [2]) was “below the threshold”, the pKd (DVL3, Q92997; [2]) was “below the threshold” and the pKd (FRMPD3, Q5JV73; [2]) was “below the threshold”. The pKd (GOPC, Q9HD26; [2]) was “below the threshold”, the pKd (GORASP2, Q9H8Y8; [2]) was “below the threshold” and the pKd (GRIP1_5, Q9Y3R0; [2]) was “below the threshold”. The pKd (GRIP2_4, Q9C0E4; [2]) was “below the threshold”, the pKd (GRIP2_6, Q9C0E4; [2]) was “below the threshold” and the pKd (HTRA1, Q92743; [2]) was “below the threshold”. For the same binder, the pKd (HTRA2, O43464; [2]) was “below the threshold”, the pKd (HTRA3, P83110; [2]) was “below the threshold” and the pKd (Inadl_6, Q8NI35; [2]) was “below the threshold”. For the same binder, the pKd (LAP2, Q96RT1; [2]) was “below the threshold”, the pKd (LNX1_1, Q8TBB1; [2]) was “below the threshold” and the pKd (LNX1_2, Q8TBB1; [2]) was “below the threshold”. The pKd (LNX2_3, Q8N448; [2]) was “below the threshold”, the pKd (LRRC7, Q96NW7; [2]) was “below the threshold” and the pKd (MAGI3_2, Q5TCQ9; [2]) was “below the threshold”. The pKd (MPP7, Q5T2T1; [2]) was “below the threshold”, the pKd (NHERF4_1, Q86UT5-2; [2]) was “below the threshold” and the pKd (PDZRN4_1, Q6ZMN7; [2]) was “below the threshold”. The pKd (SNTB1, Q13884; [2]) was “below the threshold”, the pKd (TJP1_3, Q07157; [2]) was “below the threshold” and the pKd (TJP3_3, O95049; [2]) was “below the threshold”.
